In patent US20150166647A1 (VLST, published 2015):

T1: human MIP-1β/CCL4 (human, UniProt Q8NHW4 24-92)
T1 construct: also called Biotin-MIP-1β
T1 chain: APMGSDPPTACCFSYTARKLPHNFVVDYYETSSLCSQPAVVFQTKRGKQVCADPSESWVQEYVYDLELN

T2: mouse MIP-1α/CCL3 (mouse, UniProt P10855 24-92)
T2 construct: also called muMIP-1α
T2 sequence: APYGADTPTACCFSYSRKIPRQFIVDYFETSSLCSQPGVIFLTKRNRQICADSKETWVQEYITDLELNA

T3: mouse MIP-1β/CCL4 (mouse, UniProt P14097 24-92)
T3 construct: also called muMIP-1β
T3 sequence: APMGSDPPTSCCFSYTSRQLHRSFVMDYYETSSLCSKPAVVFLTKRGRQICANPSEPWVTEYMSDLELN

T4: human MIP-1α/CCL3 (human, UniProt P10147 24-92)
T4 construct: also called Biotin-MIP-1α
T4 sequence: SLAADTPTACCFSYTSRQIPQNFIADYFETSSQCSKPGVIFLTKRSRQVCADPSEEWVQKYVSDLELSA

T5: BCA1
T5 construct: also called BCA-1/BLC/CXCL13; CXCL13
T5 chemokine: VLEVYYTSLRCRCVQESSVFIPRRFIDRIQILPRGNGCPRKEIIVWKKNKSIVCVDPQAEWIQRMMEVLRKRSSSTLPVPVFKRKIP

T6: NAP-2
T6 construct: also called NAP-2/CXCL7; CXCL7
T6 chemokine: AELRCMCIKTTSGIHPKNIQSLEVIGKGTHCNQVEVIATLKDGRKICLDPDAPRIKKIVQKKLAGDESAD

T7: I-TAC
T7 construct: also called I-TAC/CXCL11; CXCL11
T7 chemokine: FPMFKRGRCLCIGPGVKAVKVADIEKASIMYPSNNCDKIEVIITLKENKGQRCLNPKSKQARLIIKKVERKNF

T8: BRAK
T8 construct: also called BRAK/CXCL14; CXCL14
T8 chemokine: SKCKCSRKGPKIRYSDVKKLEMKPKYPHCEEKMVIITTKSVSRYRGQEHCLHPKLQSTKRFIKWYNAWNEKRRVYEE

T9: PF4
T9 construct: also called PF4/CXCL4; CXCL4
T9 chemokine: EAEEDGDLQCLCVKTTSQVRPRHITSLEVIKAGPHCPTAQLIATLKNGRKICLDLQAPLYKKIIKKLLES

T10: CTACK
T10 construct: also called CTACK/CCL27; CCL27
T10 chemokine: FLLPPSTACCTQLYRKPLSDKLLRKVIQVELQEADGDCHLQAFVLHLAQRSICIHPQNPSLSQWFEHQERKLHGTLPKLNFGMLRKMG

T11: XCL1
T11 chemokine: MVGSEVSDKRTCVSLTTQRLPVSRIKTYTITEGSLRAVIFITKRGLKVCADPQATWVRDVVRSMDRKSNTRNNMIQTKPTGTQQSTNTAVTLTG

B1: monoclonal antibody 7D12A (antibody, V domains shown)
VH: EVHLQESGPSLVKPSQTLSLTCSVTGDSITNGYWNWIRKFPGNKLDYMGYISYDGNTYYNPSLKSRFSITRDTSKNQYYLQLNSVTTEDTATYYCSRGDYGTYVMDYWGQGTSVTVSS
VL: NIVLTQSPVSLAVSLGQRATISCRASESVDSHGNSFMHWYQQKPGQPPKLLIYLASNLESGVPARFTGGGSGSDFTLTIDPVEADDVGTYYCQQNNEDPYTFGGGTKLEIK
notes: also called MAb 7D12A
B2: monoclonal antibody 18V4F (antibody, V domains shown)
VH: QVQLKESGPGLVAPSQSLSITCTVSGFSLTGYGIHWVRQPPGKGLEWLGVIWPGGGTNYNSALMSRLSISKDNSKSQVFLKMNSLQTDDTAMYYCARGPLITTEVSMDYWGQGTSVTVSS
VL: QAVVTQESALTTSPGETVTLTCRSNTGAVTTSNYANWVQEKPDHLFTGLIGGTNNRAPGVPARFSGSLIGDKAALTITGAQTEDEAIYFCALWYSNHWVFGGGTKLTVLG
notes: also called MAb 18V4F

How the values were obtained:
human MCP-1/CCL2 = molecular target: T12, human MCP-1/CCL2 (human, UniProt P13500 24-99); experiment: ELISA, hybridoma fusion-well supernatant on biotinylated chemokine on streptavidin plate; background approx. 0.150
T12 construct: also called Biotin-MCP1
T12 sequence (P13500 24-99 limits assumed): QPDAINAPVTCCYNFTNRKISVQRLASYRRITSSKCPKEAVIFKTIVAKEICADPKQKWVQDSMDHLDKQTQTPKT

human MIP-1β/CCL4 = molecular target: T1, human MIP-1β/CCL4; experiment: as above
mouse MIP-1α/CCL3 = molecular target: T2, mouse MIP-1α/CCL3; experiment: MSD electrochemiluminescence, chemokine coated at 1 µg/mL
mouse RANTES/CCL5 = molecular target: T13, mouse RANTES/CCL5 (mouse, UniProt P30882 24-91); experiment: as above
T13 construct: also called muRANTES
T13 sequence (P30882 24-91 limits assumed): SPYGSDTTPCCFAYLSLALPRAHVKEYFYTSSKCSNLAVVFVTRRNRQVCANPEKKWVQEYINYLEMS

mouse MIP-1β/CCL4 = molecular target: T3, mouse MIP-1β/CCL4; experiment: as above
human MIP-1α/CCL3 = molecular target: T4, human MIP-1α/CCL3; experiment: ELISA, hybridoma fusion-well supernatant on coated MIP-1α; background approx. 0.150
Groα = molecular target: T14, Groα; experiment: MSD electrochemiluminescence assay; chemokine coated at 1 µg/mL, 18V4F at 3 µg/mL; background = BSA
T14 construct: also called Gro-α/CXCL1; CXCL1
T14 sequence (chemokine, as listed by the source): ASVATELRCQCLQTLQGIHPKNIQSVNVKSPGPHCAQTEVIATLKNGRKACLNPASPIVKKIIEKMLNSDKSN

BCA1 = molecular target: T5, BCA1; experiment: as above
IL-8 = molecular target: T15, IL-8; experiment: as above
T15 construct: also called IL-8/CXCL8; CXCL8
T15 sequence (chemokine, as listed by the source): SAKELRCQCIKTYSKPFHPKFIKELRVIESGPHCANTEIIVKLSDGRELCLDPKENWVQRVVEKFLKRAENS

NAP-2 = molecular target: T6, NAP-2; experiment: as above
I-TAC = molecular target: T7, I-TAC; experiment: as above
BRAK = molecular target: T8, BRAK; experiment: as above
Groγ = molecular target: T16, Groγ; experiment: as above
T16 construct: also called Gro-γ/CXCL3; CXCL3
T16 sequence (chemokine, as listed by the source): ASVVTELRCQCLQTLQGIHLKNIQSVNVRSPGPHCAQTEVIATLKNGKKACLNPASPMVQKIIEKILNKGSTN

Groβ = molecular target: T17, Groβ; experiment: as above
T17 construct: also called Gro-β/CXCL2; CXCL2
T17 sequence (chemokine, as listed by the source): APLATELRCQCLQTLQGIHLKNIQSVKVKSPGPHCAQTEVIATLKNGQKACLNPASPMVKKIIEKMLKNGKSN

ENA-78 = molecular target: T18, ENA-78; experiment: as above
T18 construct: also called ENA-78/CXCL5; CXCL5
T18 sequence (chemokine, as listed by the source): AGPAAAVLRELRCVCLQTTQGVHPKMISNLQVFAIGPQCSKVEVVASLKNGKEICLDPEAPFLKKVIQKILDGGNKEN

GCP2 = molecular target: T19, GCP2; experiment: as above
T19 construct: also called GCP-2/CXCL6; CXCL6
T19 sequence (chemokine, as listed by the source): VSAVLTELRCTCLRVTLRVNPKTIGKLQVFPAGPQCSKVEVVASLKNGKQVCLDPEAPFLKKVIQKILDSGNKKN

PF4 = molecular target: T9, PF4; experiment: as above
SDF = molecular target: T20, SDF; experiment: as above
T20 construct: also called SDF-1/CXCL12; CXCL12
T20 sequence (chemokine, as listed by the source): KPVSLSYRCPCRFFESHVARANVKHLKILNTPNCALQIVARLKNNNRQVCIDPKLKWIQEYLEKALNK

CTACK = molecular target: T10, CTACK; experiment: as above
XCL1 = molecular target: T11, XCL1; experiment: as above

ELISA signal (human MCP-1/CCL2)	ELISA signal (human MIP-1β/CCL4)	binding result (mouse MIP-1α/CCL3)	binding result (mouse RANTES/CCL5)	binding result (mouse MIP-1β/CCL4)	ELISA signal (human MIP-1α/CCL3)	binding result (Groα)	binding result (BCA1)	binding result (IL-8)	binding result (NAP-2)	binding result (I-TAC)	binding result (BRAK)	binding result (Groγ)	binding result (Groβ)	binding result (ENA-78)	binding result (GCP2)	binding result (PF4)	binding result (SDF)	binding result (CTACK)	binding result (XCL1)	Binder
0.246	2.68	no binding (tested: 3 µg/mL)	no binding (tested: 3 µg/mL)	no binding (tested: 3 µg/mL)	1.47															B1
		no binding (tested: 3 µg/mL)	no binding (tested: 3 µg/mL)	no binding (tested: 3 µg/mL)		no binding (tested: 3 µg/mL)	no binding (tested: 3 µg/mL)	no binding (tested: 3 µg/mL)	no binding (tested: 3 µg/mL)	no binding (tested: 3 µg/mL)	no binding (tested: 3 µg/mL)	no binding (tested: 3 µg/mL)	no binding (tested: 3 µg/mL)	no binding (tested: 3 µg/mL)	no binding (tested: 3 µg/mL)	no binding (tested: 3 µg/mL)	no binding (tested: 3 µg/mL)	no binding (tested: 3 µg/mL)	no binding (tested: 3 µg/mL)	B2
